Reference: patent US20080058263A1 (published 2008)
Numbering of substitutions follows the chain as printed.

T1: VEGFR-3-Fc (UniProt P35916 25-328)
T1 construct: domain: first three Ig domains; conditioned supernatant of 293T cells; also called VEGFR-3-Fc fusion protein; not shown: Fc fragment of the pIg vector
T1 sequence (looked up): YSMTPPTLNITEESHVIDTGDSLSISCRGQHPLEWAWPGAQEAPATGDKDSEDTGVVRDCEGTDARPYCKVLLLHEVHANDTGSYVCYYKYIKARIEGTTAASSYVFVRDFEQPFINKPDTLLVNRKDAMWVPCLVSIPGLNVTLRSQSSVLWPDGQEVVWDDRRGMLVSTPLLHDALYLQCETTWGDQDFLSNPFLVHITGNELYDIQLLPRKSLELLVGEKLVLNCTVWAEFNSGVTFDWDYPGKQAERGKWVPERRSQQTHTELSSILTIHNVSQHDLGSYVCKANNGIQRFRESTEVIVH

B1: 22-2 (ligand)
chain: AHYNTEILKSIDNEWRKTQCMPREVCIDVGKEFGVATNTFFKPPCVSVYRCGGCCNDEGLECMNTSTSYLSKTLFEIKPHQGQHIGEMSFLQHNKCECRPKKD
B2: 22-14 (ligand)
chain: AHYNTEILKSIDNEWRKTQCMPREVCIDVGKEFGVATNTFFKPPCVSVYRCGGCCNDEGLECMNTSTSYLSKTLFEITVPLSQGPKPVTISFANHTSCRCMSKLD
B3: 23-16 (ligand)
chain: B2 chain with F33Y, G34P, V35D, A36E, T37I, N38E, T39Y, F40I, D57S, E61Q
B4: 24-16 (ligand)
chain: B2 chain with P44S, S47P, V48L, Y49M, D57S, E61Q
B5: 21-14 (ligand)
chain: AHYNTEILKSIDNEWRKTQCMPREVCIDVGKEYPDEIEYIFKPSCVPLMRCGGCCNDEGLECMNTSTSYLSKTLFEITVPLSQGPKPVTISFANHTSCRCMSKLD
B6: 24-14 (ligand)
chain: B2 chain with P44S, S47P, V48L, Y49M
B7: 22-10 (ligand)
chain: B2 chain with A93L, N94Q, T96N, S97K, R99E, M101R, S102P, L104K
B8: 72-14 (ligand)
chain: B2 chain with A1G, H2Q, Y3N, N4H, T5H, I7V, L8V
B9: 52-14 (ligand)
chain: B2 chain with R23I, V25T, C26L, I27V, V29I, G30F, K31Q
B10: 22-12 (ligand)
chain: B2 chain with D57S, E61Q, A93L, N94Q, T96N, S97K, R99E, M101R, S102P, L104K
B11: 72-16 (ligand)
chain: B2 chain with A1G, H2Q, Y3N, N4H, T5H, I7V, L8V, D57S, E61Q
B12: 52-16 (ligand)
chain: B2 chain with R23I, V25T, C26L, I27V, V29I, G30F, K31Q, D57S, E61Q
B13: 24-10 (ligand)
chain: AHYNTEILKSIDNEWRKTQCMPREVCIDVGKEFGVATNTFFKPSCVPLMRCGGCCNDEGLECMNTSTSYLSKTLFEITVPLSQGPKPVTISFLQHNKCECRPKKD

Each binder was assayed against T1, VEGFR-3-Fc (assay: receptor-Fc IP).
Procedure: (§1) The binding assay procedure was identical to the immunoprecipitation using pentahistidine antibody described in Example 2, apart from the composition of the immunoprecipitation (IP) mixes. The IP mixes used for the receptor binding analysis were as follows: For VEGFR-1 binding assays, the IP mix was phosphate buffered saline (PBS) containing 1.5% BSA, 0.06% Tween 20, 3 μg/ml heparin and 400 ng/ml VEGFR-1-Fc fusion protein (100 μl of this IP mix was added to 200 μl of sample supernatant); for VEGFR-2 binding assays, the IP mix was 82% conditioned cell supernatant from 293T cells transiently expressing VEGFR-2-Fc fusion protein in mixture with 18% of a PBS solution that contained 5% BSA, 0.2% Tween 20, and 10 μg/ml heparin (250 μl of IP mix was added to 200 μl of sample supernatant); and for VEGFR-3 binding assays, the IP mix was 82% conditioned cell supernatant from 293T cells transiently expressing VEGFR-3-Fc fusion protein, 18% of PBS containing 5% BSA, 0.2% Tween 20, and 10 μg/ml heparin (250 μl of IP mix was added to 200 μl of sample supernatant).
B1: binds.
B2: binds.
B3: no binding.
B4: no binding.
B5: no binding.
B6: no binding.
B7: binds.
B8: binds.
B9: binds.
B10: binds.
B11: binds.
B12: binds.
B13: no binding.

What follows are binders tested against T2, VEGFR-1-Fc (UniProt P17948 27-338) (assay: receptor-Fc IP).
T2 construct: domain: first three Ig domains; expressed in Drosophila S2 cells, purified on Protein A sepharose; also called VEGFR-1-Fc fusion protein; not shown: Fc fragment from the Signal-pIgPlus vector
T2 sequence (P17948 27-338): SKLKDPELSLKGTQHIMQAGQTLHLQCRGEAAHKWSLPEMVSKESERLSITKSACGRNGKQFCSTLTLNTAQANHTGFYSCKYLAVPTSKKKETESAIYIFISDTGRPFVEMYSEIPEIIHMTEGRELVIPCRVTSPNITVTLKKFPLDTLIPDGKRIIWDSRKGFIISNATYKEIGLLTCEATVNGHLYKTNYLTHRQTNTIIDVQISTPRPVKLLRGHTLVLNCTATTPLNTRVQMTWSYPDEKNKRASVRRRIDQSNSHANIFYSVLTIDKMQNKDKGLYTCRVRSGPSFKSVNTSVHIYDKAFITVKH
Procedure: as §1
B1: no binding.
B2: no binding.
B3: no binding.
B4: no binding.
B5: no binding.
B6: no binding.
B7: no binding.
B8: no binding.
B9: no binding.
B10: no binding.
B11: no binding.
B12: no binding.
B13: no binding.

Each binder was assayed against T3, VEGFR-2-Fc (UniProt P35968 20-322) (assay: receptor-Fc IP).
T3 construct: domain: first 3 Ig domains; conditioned supernatant of 293T cells; also called VEGFR-2-Fc fusion protein; not shown: Fc fragment of the pIg vector
T3 sequence (P35968 20-322): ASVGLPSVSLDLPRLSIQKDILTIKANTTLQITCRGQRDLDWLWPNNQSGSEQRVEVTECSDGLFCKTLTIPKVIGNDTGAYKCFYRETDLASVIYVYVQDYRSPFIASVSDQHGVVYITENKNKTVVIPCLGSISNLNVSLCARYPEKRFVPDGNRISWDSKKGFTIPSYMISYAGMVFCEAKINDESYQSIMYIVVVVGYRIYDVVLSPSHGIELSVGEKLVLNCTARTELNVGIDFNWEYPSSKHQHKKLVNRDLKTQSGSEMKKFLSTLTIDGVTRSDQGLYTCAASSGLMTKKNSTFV
Procedure: as §1
B1: binds.
B2: binds.
B3: no binding.
B4: no binding.
B5: no binding.
B6: no binding.
B7: binds.
B8: binds.
B9: no binding.
B10: binds.
B11: binds.
B12: binds.
B13: no binding.
